Like-named read-outs stand apart in the source and are kept apart here.

The target in experiment [1] is SARS-Cov2 Spike Active Trimer SAT (R&D Systems; Catalog No. 10549-CV) (SARS-CoV2) (UniProt P0DTC2). Briefly: SPR (Carterra).
Experiment [2] shares this target. Briefly: SPR (Biacore).
The target is the same in experiment [3].
Experiment [4] shares this target. This is another data set of the same source.
For experiment [5] the target is unchanged. Briefly: ELISA, serially diluted purified Nb-Fc on SAT antigen.
The target in experiment [6] is SARS-CoV-2 Spike (S) protein with an inactivated furin site on HEK293-Spike cells (293-SARS2-S-dfur, (SARS-CoV-2) (UniProt P0DTC2)).

As to “human SAT Nb-Fc control VH-Ab-8 (HAb8-S) (Fc fusion)”, the Kd in experiment [1] was 37.3 nM. For the same substance, the Kd in experiment [2] was 5.7 nM. In addition, in experiment [3], the Kd was 19.8 nM. Further, in experiment [4], the Response was 0.489, the koff amounted to 0.00294 s⁻¹ and the kon was 149000 M⁻¹ s⁻¹. In experiment [5], this substance returned an EC50 of 0.018 nM. In experiment [6], the GMFI turned out to be 430 and the GMFI Ratio was found to be 21.1.

The values above are taken from patent publication US20240251767A1.
